Measurements: article PMC11861601 (2025)
Where two headings read alike, the source gives them in different places.

Key:
[1] = target: T1, His-tagged full-length c-MYC (human, UniProt P01106-1 1-439); experiment: SPR
[2] = target: T2, His-tagged MAX (human, UniProt P61244 1-160); experiment: SPR
[3] = target: T3, His-tagged full-length N-MYC (human, UniProt P04198 1-464); experiment: SPR
T3 chain: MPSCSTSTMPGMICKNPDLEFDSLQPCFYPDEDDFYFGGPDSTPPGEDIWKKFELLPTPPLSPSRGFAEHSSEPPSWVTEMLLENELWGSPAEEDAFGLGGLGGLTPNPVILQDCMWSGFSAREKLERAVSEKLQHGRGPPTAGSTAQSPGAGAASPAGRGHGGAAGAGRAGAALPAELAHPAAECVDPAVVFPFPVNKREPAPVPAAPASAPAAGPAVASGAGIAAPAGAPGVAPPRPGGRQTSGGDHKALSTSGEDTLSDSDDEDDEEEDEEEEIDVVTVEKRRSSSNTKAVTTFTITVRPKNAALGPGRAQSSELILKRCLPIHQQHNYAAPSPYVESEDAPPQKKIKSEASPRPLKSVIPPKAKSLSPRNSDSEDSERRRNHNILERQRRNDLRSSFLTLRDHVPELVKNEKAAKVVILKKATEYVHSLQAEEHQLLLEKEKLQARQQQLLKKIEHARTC

[4] = target: T1, His-tagged full-length c-MYC; experiment: SPR; remark: listed apart in the source
[5] = target: T2, His-tagged MAX; experiment: SPR; repeat
[6] = target: His-tagged C-terminal c-MYC (human); experiment: SPR
Sequence of His-tagged C-terminal c-MYC (human) (chain, as listed by the source): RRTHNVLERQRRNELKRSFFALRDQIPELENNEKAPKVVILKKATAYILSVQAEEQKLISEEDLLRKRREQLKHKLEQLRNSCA

T1 sequence (P01106 16-454): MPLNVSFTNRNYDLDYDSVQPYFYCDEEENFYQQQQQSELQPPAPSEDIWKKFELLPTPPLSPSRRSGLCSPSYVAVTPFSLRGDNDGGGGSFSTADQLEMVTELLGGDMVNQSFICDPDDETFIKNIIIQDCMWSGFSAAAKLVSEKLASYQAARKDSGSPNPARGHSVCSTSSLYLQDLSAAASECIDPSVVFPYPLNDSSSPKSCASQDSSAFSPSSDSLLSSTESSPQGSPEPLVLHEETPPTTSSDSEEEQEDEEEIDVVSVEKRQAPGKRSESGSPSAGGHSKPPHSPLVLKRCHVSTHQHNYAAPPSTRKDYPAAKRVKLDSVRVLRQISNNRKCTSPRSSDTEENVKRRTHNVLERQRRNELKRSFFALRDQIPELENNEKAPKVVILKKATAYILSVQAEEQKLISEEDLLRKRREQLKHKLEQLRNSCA
T2 sequence (P61244 whole entry): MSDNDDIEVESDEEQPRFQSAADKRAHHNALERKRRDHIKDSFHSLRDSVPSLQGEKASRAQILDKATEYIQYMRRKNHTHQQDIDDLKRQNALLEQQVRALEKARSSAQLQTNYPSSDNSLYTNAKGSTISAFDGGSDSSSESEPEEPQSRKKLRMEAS

B1: Lon AAA+ domain peptide (aa 241-584) (domain or fragment)
chain: LGEMDDAPDENEALKRKIDAAKMPKEAKEKAEAELQKLKMMSPMSAEATVVRGYIDWMVQVPWNARSKVKKDLRQAQEILDTDHYGLERVKDRILEYLAVQSRVNKIKGPILCLVGPPGVGKTSLGQSIAKATGRKYVRMALGGVRDEAEIRGHRRTYIGSMPGKLIQKMAKVGVKNPLFLLDEIDKMSSDMRGDPASALLEVLDPEQNVAFSDHYLEVDYDLSDVMFVATSNSMNIPAPLLDRMEVIRLSGYTEDEKLNIAKRHLLPKQIERNALKKGELTVDDSAIIGIIRYYTREAGVRGLEREISKLCRKAVKQLLLDKSLKHIEINGDNLHDYLGVQRF
[1]
  Kd: 534 nM

B2: Lon peptidase domain peptide (aa 581-778) (domain or fragment)
chain: VQRFDYGRADNENRVGQVTGLAWTEVGGDLLTIETACVPGKGKLTYTGSLGEVMQESIQAALTVVRARAEKLGINPDFYEKRDIHVHVPEGATPKDGPSAGIAMCTALVSCLTGNPVRADVAMTGEITLRGQVLPIGGLKEKLLAAHRGGIKTVLIPFENKRDLEEIPDNVIADLDIHPVKRIEEVLTLALQNEPSGM
[1]
  Kd: 849 nM

B3: Lon N-terminal domain peptide (aa 1-245) (domain or fragment)
chain: MNPERSERIEIPVLPLRDVVVYPHMVIPLFVGREKSIRCLEAAMDHDKKIMLVAQKEASTDEPGVNDLFTVGTVASILQMLKLPDGTVKVLVEGLQRARISALSDNGEHFSAKAEYLESPTIDEREQEVLVRTAISQFEGYIKLNKKIPPEVLTSLNSIDDPARLADTIAAHMPLKLADKQSVLEMSDVNERLEYLMAMMESEIDLLQVEKRIRNRVKKQMEKSQREYYLNEQMKAIQKELGEMD
[2]
  Kd: 294 nM
[3]
  Kd: 402 nM
[4]
  Kd: 462 nM
[5]
  Kd: 1690 nM

B4: Lon N-terminal domain peptide (aa 1-245) (domain or fragment)
chain: B3 chain
modifications: His-tag omitted. The paper does not print the limits of Origene TP762404. Limits follow the paper's modelled C-terminal part, c-MYC aa 356-439 in 439-aa numbering, shifted by +15 to the 454-aa entry (bHLH-leucine zipper to the C-terminus). The bought construct may start earlier.
[6]
  Kd: 495 nM

B5: recombinant Escherichia coli Lon protease (aa 1-778) (enzyme)
chain: MNPERSERIEIPVLPLRDVVVYPHMVIPLFVGREKSIRCLEAAMDHDKKIMLVAQKEASTDEPGVNDLFTVGTVASILQMLKLPDGTVKVLVEGLQRARISALSDNGEHFSAKAEYLESPTIDEREQEVLVRTAISQFEGYIKLNKKIPPEVLTSLNSIDDPARLADTIAAHMPLKLADKQSVLEMSDVNERLEYLMAMMESEIDLLQVEKRIRNRVKKQMEKSQREYYLNEQMKAIQKELGEMDDAPDENEALKRKIDAAKMPKEAKEKAEAELQKLKMMSPMSAEATVVRGYIDWMVQVPWNARSKVKKDLRQAQEILDTDHYGLERVKDRILEYLAVQSRVNKIKGPILCLVGPPGVGKTSLGQSIAKATGRKYVRMALGGVRDEAEIRGHRRTYIGSMPGKLIQKMAKVGVKNPLFLLDEIDKMSSDMRGDPASALLEVLDPEQNVAFSDHYLEVDYDLSDVMFVATSNSMNIPAPLLDRMEVIRLSGYTEDEKLNIAKRHLLPKQIERNALKKGELTVDDSAIIGIIRYYTREAGVRGLEREISKLCRKAVKQLLLDKSLKHIEINGDNLHDYLGVQRFDYGRADNENRVGQVTGLAWTEVGGDLLTIETACVPGKGKLTYTGSLGEVMQESIQAALTVVRARAEKLGINPDFYEKRDIHVHVPEGATPKDGPSAGIAMCTALVSCLTGNPVRADVAMTGEITLRGQVLPIGGLKEKLLAAHRGGIKTVLIPFENKRDLEEIPDNVIADLDIHPVKRIEEVLTLALQNEPSGM
modifications: His-tag omitted. The paper does not print the limits of Origene TP762404. Limits follow the paper's modelled C-terminal part, c-MYC aa 356-439 in 439-aa numbering, shifted by +15 to the 454-aa entry (bHLH-leucine zipper to the C-terminus). The bought construct may start earlier.
[6]
  Kd: 398 nM

B6: recombinant Escherichia coli Lon protease (aa 1-778) (enzyme)
chain: B5 chain
[2]
  Kd: 164 nM
[3]
  Kd: 332 nM
[4]
  Kd: 382 nM
[5]
  Kd: 174 nM
